According to PMC9723635:

How the values were obtained:
RBPMS-A T/E [1] = assay: UV crosslinking; settings: 4 uM protein, with 20% HeLa nuclear extract, EMSA: 50 mM HEPES pH 7.2-7.9, 15 mM MgCl2, 25% glycerol, 5 mM DTT, 45 mM KCl, 5 ug tRNA, 20 fmol RNA, 25 min at 30 C, then 5 ug heparin 5 min at 30 C
RBPMS-A T/A = assay: EMSA; settings: apparent Kd, Hill fit; tRNA and heparin present; EMSA: 50 mM HEPES pH 7.2-7.9, 15 mM MgCl2, 25% glycerol, 5 mM DTT, 45 mM KCl, 5 ug tRNA, 20 fmol RNA, 25 min at 30 C, then 5 ug heparin 5 min at 30 C; 4% …
RBPMS-A T/E [2] = assay: EMSA; settings: apparent Kd, Hill fit; tRNA and heparin present; EMSA: 50 mM HEPES pH 7.2-7.9, 15 mM MgCl2, 25% glycerol, 5 mM DTT, 45 mM KCl, 5 ug tRNA, 20 fmol RNA, 25 min at 30 C, then 5 ug heparin 5 min at 30 C; 4% …

Substance: Tpm1 UV-crosslinking RNA
- binding signal (RBPMS-A T/E [1]): 7.8 % of WT

Substance: Tpm1 exon 3 upstream intron EMSA RNA (three tandem CAC motifs)
- Kd (RBPMS-A T/A): 268 nM
- Kd (RBPMS-A T/E [2]): 756 nM
